Assay results from the supplement of paper PMC9112550, “Optimization of the antimicrobial peptide Bac7 by deep mutational scanning” (BMC Biology, 2022).

What follows are sequences tested on Escherichia coli TOP10 (assay: shrunken log2 fold change of peptide-encoding DNA abundance (4.5 h post-induction vs induction); higher = less antimicrobial activity (less host growth inhibition)). Conditions: time post-induction: 4.5 h; library: site-saturation at positions 5, 18, 19, 20.
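Also: peptides expressed intracellularly from a pBAD plasmid library in pooled LB shake-flask culture, induced with 0.3% L-arabinose, DNA abundance read by NGS, three biological replicates, DESeq2 with apeglm shrinkage.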

Sequence | shrunken log2 fold change
RRIRCRPPRLPRPRPRPEEPPRP | 0.847
RRIRSRPPRLPRPRPRPAGIPRP | 0.138
RRIRERPPRLPRPRPRPVQPPRP | 0.336
RRIRGRPPRLPRPRPRPSNQPRP | 0.0776
RRIRIRPPRLPRPRPRPWRTPRP | -1.03
RRIRIRPPRLPRPRPRPITFPRP | -1.1
RRIRSRPPRLPRPRPRPSLEPRP | 0.0147
RRIRIRPPRLPRPRPRPYCPPRP | -0.175
RRIRYRPPRLPRPRPRPKNSPRP | -1.22
RRIRRRPPRLPRPRPRPNSKPRP | -0.00313
RRIRYRPPRLPRPRPRPIKFPRP | -0.244
RRIRVRPPRLPRPRPRPATNPRP | -0.301
RRIRLRPPRLPRPRPRPEWPPRP | 0.549
RRIRVRPPRLPRPRPRPQQIPRP | -0.119
RRIRRRPPRLPRPRPRPAKLPRP | 0.0542
RRIRARPPRLPRPRPRPPDNPRP | 0.576
RRIRQRPPRLPRPRPRPCFWPRP | 0.14
RRIRLRPPRLPRPRPRPLHVPRP | -0.173
RRIRQRPPRLPRPRPRPKEDPRP | -0.0372
RRIRYRPPRLPRPRPRPTQLPRP | -0.46
RRIRSRPPRLPRPRPRPTAWPRP | 0.47
RRIRIRPPRLPRPRPRPFFSPRP | -0.799
RRIRRRPPRLPRPRPRPWGKPRP | -0.0259
RRIRFRPPRLPRPRPRPCKTPRP | 0.00592
RRIRDRPPRLPRPRPRPLQYPRP | -0.373

Sequence | shrunken log2 fold change
RRIRPRPPRLPRPRPRPCKVPRP | -0.348
RRIRMRPPRLPRPRPRPSEYPRP | 0.0493
RRIRGRPPRLPRPRPRPNFNPRP | 0.0556
RRIRKRPPRLPRPRPRPGLNPRP | 0.0896
RRIRKRPPRLPRPRPRPWPYPRP | -0.146
RRIRARPPRLPRPRPRPWQEPRP | -0.0122
RRIRYRPPRLPRPRPRPGMDPRP | -0.299
RRIRVRPPRLPRPRPRPQIDPRP | -0.321
RRIRERPPRLPRPRPRPSGQPRP | -0.148
RRIRQRPPRLPRPRPRPHLMPRP | 0.106
RRIRFRPPRLPRPRPRPRYSPRP | -0.736
RRIRRRPPRLPRPRPRPFYLPRP | -0.226
RRIRKRPPRLPRPRPRPERVPRP | 0.281
RRIRQRPPRLPRPRPRPYNVPRP | -0.0265
RRIRIRPPRLPRPRPRPLWRPRP | 0.156
RRIRSRPPRLPRPRPRPVIIPRP | -0.254
RRIRVRPPRLPRPRPRPWHAPRP | -0.109
RRIRMRPPRLPRPRPRPSQEPRP | 0.226
RRIRNRPPRLPRPRPRPGDHPRP | -0.0463
RRIRDRPPRLPRPRPRPFTEPRP | -0.165
RRIRIRPPRLPRPRPRPYNVPRP | -0.291
RRIRTRPPRLPRPRPRPLPDPRP | -0.0997
RRIRIRPPRLPRPRPRPGNVPRP | -0.0399
RRIRNRPPRLPRPRPRPVQTPRP | 0.12
RRIRERPPRLPRPRPRPWILPRP | 0.0494

Sequence | shrunken log2 fold change
RRIRKRPPRLPRPRPRPNHVPRP | 0.0656
RRIRPRPPRLPRPRPRPSLNPRP | -0.539
RRIRERPPRLPRPRPRPGGPPRP | -0.00661
RRIRFRPPRLPRPRPRPNFGPRP | 0.0849
RRIRYRPPRLPRPRPRPEMAPRP | -0.107
RRIRERPPRLPRPRPRPQMMPRP | -0.0543
RRIRSRPPRLPRPRPRPRGNPRP | 0.0829
RRIRARPPRLPRPRPRPQLSPRP | 0.329
RRIRKRPPRLPRPRPRPYIVPRP | -0.404
RRIRHRPPRLPRPRPRPCWHPRP | -0.112
RRIRIRPPRLPRPRPRPYGKPRP | -0.108
RRIRTRPPRLPRPRPRPHSNPRP | -0.489
RRIRRRPPRLPRPRPRPSLRPRP | -0.0199
RRIRARPPRLPRPRPRPMMFPRP | 0.166
RRIRIRPPRLPRPRPRPTSMPRP | -0.0835
RRIRKRPPRLPRPRPRPWFPPRP | -0.0488
RRIRERPPRLPRPRPRPTTMPRP | -0.364
RRIRGRPPRLPRPRPRPFMFPRP | 1.16
RRIRWRPPRLPRPRPRPELFPRP | -0.0123
RRIRGRPPRLPRPRPRPNTEPRP | 0.299
RRIRMRPPRLPRPRPRPWLQPRP | -0.000921
RRIRGRPPRLPRPRPRPNYMPRP | -0.0439
RRIRDRPPRLPRPRPRPMCIPRP | -0.121
RRIRTRPPRLPRPRPRPPNQPRP | 0.185
RRIRYRPPRLPRPRPRPRDRPRP | -0.116

Sequence | shrunken log2 fold change
RRIRPRPPRLPRPRPRPEARPRP | 0.374
RRIRWRPPRLPRPRPRPDYFPRP | -0.0991
RRIRIRPPRLPRPRPRPDCVPRP | -0.0493
RRIRSRPPRLPRPRPRPIKTPRP | 0.000501
RRIRGRPPRLPRPRPRPGCKPRP | 0.441
RRIRSRPPRLPRPRPRPIEGPRP | -0.0107
RRIRNRPPRLPRPRPRPHTPPRP | -0.317
RRIRRRPPRLPRPRPRPPCCPRP | 0.623
RRIRNRPPRLPRPRPRPWFPPRP | -0.223
RRIRRRPPRLPRPRPRPNDGPRP | 0.0979
RRIRERPPRLPRPRPRPWEHPRP | -0.221
RRIRGRPPRLPRPRPRPGMCPRP | 0.489
RRIRDRPPRLPRPRPRPKYPPRP | 0.0118
RRIRVRPPRLPRPRPRPCCIPRP | -0.0914
RRIRSRPPRLPRPRPRPWYRPRP | -0.119
RRIRFRPPRLPRPRPRPEGFPRP | 0.518
RRIRGRPPRLPRPRPRPGMNPRP | 0.105
RRIRQRPPRLPRPRPRPWNMPRP | -0.086
RRIRMRPPRLPRPRPRPQRHPRP | 0.348
RRIRCRPPRLPRPRPRPNIPPRP | -0.822
RRIRYRPPRLPRPRPRPCACPRP | 0.0891
RRIRNRPPRLPRPRPRPQNPPRP | -0.117
RRIRRRPPRLPRPRPRPWFHPRP | 0.0067
RRIRGRPPRLPRPRPRPTSNPRP | 0.659
RRIRWRPPRLPRPRPRPADTPRP | 0.0101

Sequence | shrunken log2 fold change
RRIRLRPPRLPRPRPRPWLPPRP | -0.464
RRIRTRPPRLPRPRPRPDTDPRP | -0.138
RRIRSRPPRLPRPRPRPCLRPRP | -0.385
RRIRWRPPRLPRPRPRPPLFPRP | 0.42
RRIRERPPRLPRPRPRPWTVPRP | 0.0377
RRIRARPPRLPRPRPRPKYIPRP | -0.536
RRIRSRPPRLPRPRPRPSIIPRP | -0.253
RRIRVRPPRLPRPRPRPHMRPRP | -0.0474
RRIRARPPRLPRPRPRPEHNPRP | -0.0925
RRIRSRPPRLPRPRPRPKSYPRP | -0.231
RRIRDRPPRLPRPRPRPHYDPRP | 0.0428
RRIRVRPPRLPRPRPRPTIPPRP | -0.0501
RRIRRRPPRLPRPRPRPRLTPRP | 0.439
RRIRARPPRLPRPRPRPAALPRP | 0.805
RRIRPRPPRLPRPRPRPVKFPRP | 0.184
RRIRKRPPRLPRPRPRPANHPRP | -0.235
RRIRIRPPRLPRPRPRPLSDPRP | 0.0446
RRIRVRPPRLPRPRPRPCDWPRP | 0.192
RRIRFRPPRLPRPRPRPGLTPRP | -0.143
RRIRDRPPRLPRPRPRPELNPRP | 1.04
RRIRLRPPRLPRPRPRPWLRPRP | -0.0452
RRIRGRPPRLPRPRPRPWYHPRP | -0.347
RRIRRRPPRLPRPRPRPTNRPRP | 0.282
RRIRCRPPRLPRPRPRPVRWPRP | 0.952
RRIRRRPPRLPRPRPRPNMGPRP | -0.108

Sequence | shrunken log2 fold change
RRIRERPPRLPRPRPRPHPTPRP | 0.0575
RRIRKRPPRLPRPRPRPYDFPRP | 0.176
RRIRIRPPRLPRPRPRPRMIPRP | 2.5
RRIRFRPPRLPRPRPRPFRVPRP | -0.119
RRIRRRPPRLPRPRPRPIWAPRP | 0.0342
RRIRYRPPRLPRPRPRPIQPPRP | 0.00143
RRIRMRPPRLPRPRPRPEKHPRP | 0.921
RRIRNRPPRLPRPRPRPDQSPRP | 0.00307
RRIRKRPPRLPRPRPRPSNRPRP | -0.00152
RRIRSRPPRLPRPRPRPWCMPRP | -0.781
RRIRKRPPRLPRPRPRPHLNPRP | 0.14
RRIRIRPPRLPRPRPRPQAKPRP | 0.2
RRIRTRPPRLPRPRPRPKWLPRP | 0.247
RRIRQRPPRLPRPRPRPGTSPRP | -0.523
RRIRFRPPRLPRPRPRPDENPRP | -0.0759
RRIRKRPPRLPRPRPRPDPGPRP | 0.335
RRIRIRPPRLPRPRPRPFSDPRP | -0.227
RRIRRRPPRLPRPRPRPCMGPRP | -0.1
RRIRPRPPRLPRPRPRPPFPPRP | 0.454
RRIRNRPPRLPRPRPRPHDHPRP | 0.171
RRIRFRPPRLPRPRPRPKCRPRP | -0.0272
RRIRHRPPRLPRPRPRPHYLPRP | 0.0305
RRIRHRPPRLPRPRPRPSVEPRP | -0.2
RRIRVRPPRLPRPRPRPHFQPRP | -0.154
RRIRLRPPRLPRPRPRPEAPPRP | 0.462
